Measurements: PMC4989220, “The role of Rab6a and phosphorylation of non-muscle myosin IIA tailpiece in alcohol-induced Golgi disorganization” (Scientific Reports, 2016)
Positions count from the first letter of the chain named.

B1: Rab6a GTPase (natural protein, UniProt P20340 1-208, looked up)
chain: MSTGGDFGNPLRKFKLVFLGEQSVGKTSLITRFMYDSFDNTYQATIGIDFLSKTMYLEDRTVRLQLWDTAGQERFRSLIPSYIRDSTVAVVVYDITNVNSFQQTTKWIDDVRTERGSDVIIMLVGNKTDLADKRQVSIEEGERKAKELNVMFIETSAKAGYNVKQLFRRVAAALPGMESTQDRSREDMIDIKLEKPQEQPVSEGGCSC
notes: Rab6a GTPase, endogenous in VA-13 cells (HepG2 cells expressing ADH); source: endogenous, VA-13 cells (lysate, Golgi fraction, fixed cells)
B2: Rab6a GTPase (rat hepatocytes) (natural protein, rat (endogenous in primary hepatocytes), UniProt Q9WVB1 1-208, looked up)
chain: B1 chain with T3A, S202N
notes: Rab6a, endogenous in hepatocytes of male Wistar rats; source: endogenous, primary rat hepatocytes (fixed cells, Golgi fraction)

Biological target: the molecule itself
Assay: Western blot of Golgi membrane fraction (dimer band); Rab6a Western blot of the Golgi fraction (sucrose gradient) from control VA-13 cells and hepatocytes from control rats

| Protein | stoichiometry N |
| --- | --- |
| B1 | 2 |
| B2 | 2 |
